Laboratory results from patent publication US12551573B2, “Compositions and methods for the targeting of PCSK9” (Scribe Therapeutics Inc., priority 2022, dated 2026).
Positions count from the first letter of the chain named.

B1: DOMAIN_15669 (protein, listed as Callorhinus ursinus)
chain: FQDSVTFEDVAVRFSSGEWQCLTRAQRHLYADVMLENYWNVISVGFAVPKPPLISHLEQGAEPCVQDLQDGGFLSCSFPVS
B2: DOMAIN_16115 (protein, listed as Bos taurus)
chain: VQGSVSFEDVAVGFSQEEWQILGPSQKALYWDVMLENYCNLVSVGYQAPTPNSLFQLEQGGPPWTVEGAALSSTCSGYQAT
B3: DOMAIN_15863 (protein)
chain: CWGLLSFKDISMEFTWEEWQLLDSAQKYLYRDVILENYSHLVSLGYHGTKPDLIFKLEQGEEPWMINARVSRQSYPEGWKE
modifications: Vulpes vulpes
B4: DOMAIN_15451 (protein)
chain: PLKLVTFEDVAVDFTQEEWSLLDKSQKNLFRNVMMETIHHLVSVGYQISKSDVISQLEQGKELWSKAAGGFQGQRPGEHQG
modifications: Bison bison
B5: DOMAIN_16611 (protein, listed as Papio anubis)
chain: MAFEDVAVYFSQEEWGLLDTAQRALYRHVMLENFTLVTSLGLSTSRPYVVIQLERGEEPWVPSGKDMTLARNTYRRLNAGS
B6: DOMAIN_16738 (protein)
chain: B5 chain with A21T, Y48H, K65T, M67T, A70S, N72T, L77R, A79P
modifications: Pan troglodytes
B7: DOMAIN_16811 (protein, listed as Balaenoptera acutorostrata)
chain: PQASVSFKDVTVEFTQEEWWQMDSAQRTLYRDVMLENYSHLVSVGYCFTKPELIFMLEQGEDPWLLEKEFVNRSSPEESQP
B8: DOMAIN_16534 (protein, listed as Acinonyx jubatus)
chain: SHGPLSFEDVAVAFTKEEWQQLDPAQRTLYRDVMLENFSHVISLGHPVSKPDVISKLEQGEEPWIIKRDVSDWIYPERETR
B9: DOMAIN_15800 (protein, listed as Otolemur garnettii)
chain: MAFEDVAVYFSQEEWGLLDTAQRALYRHVMLENFTLVSSLGLSTSRPRVVVQLERGEEPWVPSRIDSTPARNAQGRRNPGS
B10: DOMAIN_16050 (protein)
chain: PLESVTFEDVAVDFTQEEWSLLDKSQKNLFRNVMLETVTHLVSVGYQISKSDVIFQLEQGKELWPEAAGGLQGQSPDEVTP
modifications: Ovis aries
B11: DOMAIN_15279 (protein, listed as Callithrix jacchus)
chain: VNDLVTFKDVAIDFSQEEWQWMNPAQKRLYRSMMLENYQSLVSLGLCVSKPYVISLLEQGREPWEMTSEMRRSPFSDWESI
B12: DOMAIN_16694 (protein, listed as Callorhinus ursinus)
chain: SYGSFSFEDVTVGFTQEEWQHLGPAQRILYRDVMLENYSHLVSVGCCIPKPEVILKLEQGEQPWILEEESPSQSYPGLPTD
B13: DOMAIN_16566 (protein, listed as Odocoileus virginianus)
chain: HQESLTFKDVAVNFTQEEWHHVDAAQRRLYKDVMLENYSHLVSLGYQVSKPEVIFKLEQGEEPWIAEGEIQRPVCPDWKTR
B14: DOMAIN_15269 (protein)
chain: YRGPVTFKDITVEFTREEWKLLDTAQRTLYREVMQENYSHLISVGYCANRPNAIFKLKQGKEPWILEVQFPRQKNPEDLCN
modifications: Ovis aries
B15: DOMAIN_15406 (protein)
chain: B5 chain with H28R, E32D, T35A, T38A, Y48R, R75G, A79S
modifications: Pan troglodytes
B16: DOMAIN_15638 (protein, listed as Sapajus apella)
chain: MAFEDVAVYFSQEEWGLLDTAQRALYRRVMLDNFALVASLGLSTSRPRVVIQLERGEEPWVPSGTDMTMSRNTHRRRNSGF
B17: DOMAIN_15356 (protein, listed as Acinonyx jubatus)
chain: TPDVVTFEDVAVCFSSGEWQCLTRAQRHLYTDVMLENYGNMLSAGLACPKPPLISHLEQGAVPCAEDLQDWGFLTCSFPVS
B18: DOMAIN_16246 (protein, listed as Macaca mulatta)
chain: ASVTVTFDDVALYFSEQEWEILEKWQKQMYKQEMKTNYQTLDSLGYAFSKPDLITWMEQGRMLFISEQGCLDKTRRTTSPP
B19: DOMAIN_15839 (protein, listed as Callithrix jacchus)
chain: AQESMTFRDVAVFFSQDEWLHLDSAQRALYREVMLENYSTLVSLGIPFSMPKVIHQLQQGQDPCTVEGDVPSNTCLGFKTW
B20: DOMAIN_16461 (protein)
chain: AQESVTFEDVAVNFTDREWQCLTYAQRHLYKDVMLENYGNMVSVGFPFPKPPLISHLERGVELCVQDPQDRESLSCSCLVS
modifications: Cebus imitator
B21: DOMAIN_16556 (protein, listed as Rhinopithecus roxellana)
chain: B20 chain with D16N, C21S, D32H, G39R, V44L, L63P, R71K, C78Y, L79P
B22: DOMAIN_24125 (protein, listed as Saimiri boliviensis)
chain: B16 chain with S45T, T73A, S79P, F81S

test system: HBEGF locus; type: cell-based, human; settings: high-throughput screen of dXR repression of the HBEGF gene; abundance of each domain in the library before and after diphtheria toxin selection; HEK293T cells

B1 and B2 are within 0.2 log units of each other in “Log2 (fold change)” value: 2.8865 for the first, 2.9023 for the second.

First: B3
Second: B4
The “Log2 (fold change)” value of the first is lower: 2.7434 for the first, 3.2905 for the second.

B5 and B6 are within 0.2 log units of each other in “Log2 (fold change)” value: 3.4786 for the first, 3.5957 for the second.

First: B7
Second: B8
The “Log2 (fold change)” value of the first is higher: 3.5141 for the first, 2.7531 for the second.

Compared with B9, B10 is lower in “Log2 (fold change)” value: 3.4462 for the first, 2.7105 for the second.

Going from B11 to B12, the “Log2 (fold change)” value falls from 3.8574 to 2.0979.

Going from B13 to B14, the “Log2 (fold change)” value falls from 3.3903 to 2.0839.

B15 and B16 are within 0.2 log units of each other in “Log2 (fold change)” value: 3.4616 for the first, 3.4277 for the second.

Compared with B17, B18 is lower in “Log2 (fold change)” value: 3.5466 for the first, 2.3971 for the second.

Compared with B19, B20 is higher in “Log2 (fold change)” value: 2.3399 for the first, 3.1155 for the second.

With B21 the “Log2 (fold change)” value was 2.4217.

same assay, conditions: high-throughput screen of dXR repression of the HBEGF gene; change in abundance of each domain in the library before and after diphtheria toxin selection

In the case of B22, the “Log2 (fold change)” value is reported as 3.9692.
